From US20200023081A1, “SELF-ASSEMBLING CYCLOPEPTIDE-DYE COMPOUNDS, FORMULATIONS THEREOF, AND USES THEREOF” (The Board of Trustees of the Leland Stanford Junior …, priority 2018, published 2020)
Where “and” joins values, the source holds several entries; their conditions need not be identical. Equal values may be shown once.

Columns and labels:
[1] = Liver signal decay after IV injection; assay type: in vivo, BALB/c mice; details: BALB/c, mouse, IV 10 nmol, read-out: elimination half-life from liver signal decay curve (converted)
Text: IV inject 10 nmol CH-RGD NPs into BALB/c mice (n=5). NIR-II fluorescent imaging (10001p, 200 ms) of mice in a supine position were taken 1, 2, 3, 4, 8, 12, 32, 60 days (d) post injection. Of 5 mice, 4 gave the strongest signal 2 days post-injection. One mouse gave it 1 day post-injection. Each liver signal was normalized with the 2 days post-injection intensity. GraphPad Prism 6 one phase decay analysis was used to get the half-life approximately 7.65 d.

[2] = test system: orthotopic bone tumors (143B); experiment: Orthotopic 143B osteosarcoma imaging; assay type: in vivo, nude mice; details: ID injection
Method: Eight-week old female nude mice (Charles River) were anaesthetized using 2.0% isoflurane and positioned on a heating pad (42° C.). The shoulder was cleaned with 70% ethanol and betadine. 1×10^6 143B cells were first injected subcutaneously into the shoulder mice and the tumor allowed to grow to a diameter 5-8 mm solid tumor. The tumors were surgical resected and cut into 1×1×1 mm^3 pieces.
The right tibia of 8-week old NU/NU mice was opened in the central part by drilling with a dental drill for a 0.5 mm diameter hole. One tumor fragment was insert into the hole and contact with the bone marrow. Then the surgical wound was sutured. Mice were observed daily for tumor growth. Palpation, micro CT and 3T MRI were used to monitor the tumor growth. The mouse was used for imaging experiment, when the tumor size had reached to 3-5 mm diameter.

[3] = Blood half-life measurement by NIR-II blood signal; assay type: in vivo; details: mouse, BALB/c mice
Method: Arrows indicate the blood vessel signal.
Half-life: approximately 776 min.

bone = assay type: in vivo, BALB/c mice
Method: FIG. 3A illustrates a supine position, top CH-RGD, bottom CH-RAD 3 h post-injection. 22 nmol CH-RGD or CH-RAD was intravenously injected into 20-25 g hairless BALB/c mice (n=6, 3 males, 3 female). NIR-II imaging (200 ms, 1150LP, 808 nm 140 mW/cm^2 laser excitation) was taken at different time points post-injection (post-injection).
(§1) Teen-week old BALB/c mice (n=3 male and 3 female per group) were obtained from Charles River for bone imaging studies, teen-week old C57BL/6 female mice (n=4 per group) were obtained from Charles River for brain vessel studies, teen-week old NU/NU female mice (n=4 per group) were obtained from Charles River for leg vessel studies, teen-week old BALB/c male mice (n=4 per group) were obtained from Charles River and housed for another 42 weeks for lymph node and lymphatic vessel studies, eight-week old female NU/NU mice (n=3 per group) were obtained from Charles River for tumor targeting studies. Before vessel or tumor imaging, all mice were anaesthetized in a rodent anesthesia machine with 2 l min^−1 O2 gas mixed with 3% Isoflurane. Tail vein injection of contrast agents were carried with a catheter and synchronized with a camera that started continuous image acquisition simultaneously. The IV injected dose was a 200 μL bolus in a 1×PBS solution at specified concentrations. The ID injected dose was a 50 μL bolus in a 1×PBS solution at specified concentrations. During the time course of imaging the mouse was kept anaesthetized by a nose cone delivering 2 l min^−1 02 gas mixed with 3% isoflurane. The sample sizes of mice were selected based on previously reported studies. Mice were randomly selected from cages for all experiments. No blinding was performed.
(§2) Images were processed with ImageJ.

NIH/3T3 cells = experiment: MTT cytotoxicity of CH-RGD NPs; assay type: cell-based
Method: The CH-RGD NPs toxicity was determined in vitro with a MTT assay (3-(4,5-dimethylthiazol-2-yl)-2,5-diphenyl tetrazolium bromide, Sigma-Aldrich, St. Louis, Mo.) on NIH/3T3 cells. Approximately 5,000 cells were incubated per well with 200 μL of DMEM growth medium and serially diluted CH-RGD NPs solution (n=6 for each concentration). The cells were kept at 37° C. in a humidified atmosphere containing 5% CO2 for 48 h in the presence of CH-RGD NPs at different concentrations. Immediately before addition of 20 μl of MTT (5 mg/mL), a colorimetric indicator of cell viability, the CH-RGD NPs-spiked medium was removed from each well plate and replaced with 180 μL fresh medium. After 4 h, the medium was carefully removed, 100 μL DMSO was added. Shaking for 10 mins, the color change was quantified using a microplate reader (TECAN Infinite M100) and taking absorbance readings at 570 nm with a reference wavelength of 650 nm. Cell viability was plotted as a fraction of the absorbance of control wells incubated without CH-RGD NPs.

U87MG tumor [4] = experiment: Double subcutaneous U87MG tumor imaging; assay type: in vivo, nude mice; details: IV 10 nmol
Method: FIG. 5A is a color photograph of a nude mouse with double xenograft brain tumor (U87MG) located on the left (approximately 1 mm) and right ([…]) shoulder. Intravenous injection of CH-RGD 10 nmol into the double tumor nude mice (n=3). NIR-II imaging (50 ms, 1000LP) at 3 days post-injection was taken at prone (FIG. 5B), right (FIG. 5C) and left (FIG. 5D) lateral decubitus.
The first right shoulder big tumor implantation is the same as above description. The difference is allowed the tumor grow for 2 to 3 weeks. When the right tumor diameter (ø) was between about 1 to 2 mm, 1×10^6 U87MG cells were injected into the mice left shoulder. After about 1 to 2 weeks, when the left shoulder tumor had grown to a diameter of about 1 mm and the right shoulder tumor was approximately 6 mm in diameter, the mouse was used for imaging.
as §2

[5] = In vitro serum stability in FBS; assay type: in vitro ADME; details: 37° C.
Method: Fetal Bovine Serum (FBS, Gibco® Catalog #26140) was used to dilute the CH-RGD PBS stock solution into 2 mL, 10 μM mixture solution. And the mixture was incubated at 37° C. in a cell culture incubator for one month. At each designated time point, 200 μL serum mixture were collected for DLS and TEM analysis.

[6] = test system: metastatic tail bone tumor (143B); experiment: Metastatic 143B bone tumor imaging; assay type: in vivo, mice; details: ID injection into left hind limb
Method: When the orthotopic 143B tumor grows to 3-4 mm diameter, surgery was performed to resect the tumor. Tumor was cut into pieces, and the visible tumor fragments were taken out. Then the surgical wound was sutured. Although the metastasis was not frequently occurring in mice tail, mice tail metastasis is the easiest diagnostic metastasis. By visual inspection, 143B tail metastasis mouse was chosen out. The mouse was used for imaging experiment when the tumor size reach to approximately 1 mm diameter.

[7] = Photostability under continuous 808 nm laser excitation; assay type: physicochemical; details: 45 min continuous laser excitation (0.33 W/cm^2, 808 nm) in water, pH 7.4 PBS, FBS
Text: The NIR fluorescence spectrum was taken using a home-built NIR spectroscopy setup. The excitation source was a 0.25 W 808 nm laser. The excitation laser was filtered with a combination of an 850/1,000/1,100/1,200/1,300 nm short-pass filters (Thorlabs). The excitation light was allowed to pass through the solution sample in a 1-cm-path-length cuvette (Starna Cells) and the resulting emission filtered through a 900 nm long-pass filter (Thorlabs) to reject the incident excitation laser light. The emitted light was directed into a spectrometer (Princeton Instruments, IsoPlane 160) equipped with a two-dimensional InGaAs array (Princeton Instruments, NIRvana TE 640). Spectra were corrected post-collection to account for the sensitivity of the detector and extinction feature of the filter. Photostability was determined by spiking CH-RGD NPs into FBS, 1× pH 7.4 PBS and DI water, and exposing it in a 1-cm-path-length cuvette (Starna Cells) to continuous 808 nm excitation at a power density of 0.33 W cm^−2 and taking images every 5 mins for approximately 45 min. Stability was determined by measuring the ROI and comparing the fluorescence intensity against the starting fluorescence signal.

[8] = literature value; cited from earlier work
[9] = test system: lymphatic vessels and lymph nodes; experiment: Lymphatic vessel and lymph node imaging after ID injection; assay type: in vivo, BALB/c mice
Method: FIGS. 4F and 4G show cross-sectional fluorescence intensity profiles taken along red-dashed lines in (FIGS. 4D and 4E). Gaussian fits to the profiles are shown in red dashed curves. Vessel width measurements were taken from Gaussian curves. Lymphatic vessels and lymph node imaging: 3 nmol CH-RGD (FIGS. 4H-4J, 4Q, 4Y), ICG (FIGS. 4K and 4R) and IR800-RGD(s) ID into BALB/c mice (n=4 per probe). NIR-II (50 ms, 1100LP)/NIR-I (100 ms, 814-851BP) imaging was taken 1 h (FIGS. 4H-4J)/(FIG. 4K), 5 h (FIG. 4Q)/FIGS. 4R and 4S), 30 d (FIG. 4U) post ID, injection site (FIG. 4I).
IR800-RGD (3 nmol) was injected intradermally into hair-removed BALB/c mouse (n=4 per probe, male, 1 years old, weight approximately 42 g) tail base. NIR-1 imaging (100 ms, 814 approximately 851 bandpass) was taken 1 h, 3 h, 5 h post-injection. Fluorescent signal appears in mice bladder from 1 h post-injection.
as §1, with “The sample sizes of mice were selected based on previously reported studies. Mice were randomly selected from cages for all experiments. No blinding was performed.” left out

blood vessels = experiment: Blood vessel imaging (brain, hind limb); assay type: in vivo, mice; details: NIR-I imaging
Method: FIGS. 4A-4W show blood vessel, lymphatic vessel, and lymph node imaging with CH-RGD (NIR-II), ICG and IR800-RGD (NIR-I). 15 nmol CH-RGD, CH-PEG, ICG, IR800-RGD were IV injected into hairless C57BL/6 mice (FIGS. 4A-4C) or nude mice (FIGS. 4D and 4E). NIR-II (FIGS. 4A, 4B, 4D, 1000 ms, 1350LP) and NIR-I imaging (FIGS. 4C, 4E, 200 ms, 814-851BP) was taken 10 min post-injection. FIGS. 4A-4C, C57BL/6 mice brain vessel images.
as §1, with “The IV injected dose was a 200 μL bolus in a 1×PBS solution at specified concentrations. The ID injected dose was a 50 μL bolus in a 1×PBS solution at specified concentrations. During the time course of imaging the mouse was kept anaesthetized by a nose cone delivering 2 l min^−1 02 gas mixed with 3% isoflurane. The sample sizes of mice were selected based on previously reported studies. Mice were randomly selected from cages for all experiments. No blinding was performed.” left out

[10] = in DCE; cited from earlier work
U87MG tumor [11] = details: mouse, in vivo, iv
Method: (§3) Then NIR-II (200 ms, 1000LP) or NIR-I (200 ms, 814-851BP) images were taken at different time points.
(§4) Nude mice were purchased from Charles River. U87MG cells were cultured in Dulbecco's modified Eagle medium containing high glucose (Gibco), which were supplemented with 10% fetal bovine serum and 1% penicillin-streptomycin. The cell was expanded in tissue culture dish and kept in a humidified atmosphere of 5% CO2 at 37° C. The medium was changed every other day. A confluent monolayer was detached with 0.5% trypsin, and dissociated into a single-cell suspension for inoculation. When the mice reached eight weeks in age, mice were inoculated with 1×10^6 U87MG cells on the right front shoulder. The tumor was allowed to grow for approximately 30 days before imaging, at which point they were approximately 30-120 mm^3 in volume.
(§5) Mice were placed on a stage with a venous catheter for IV injection of contrast and imaging agents. 0.5 mL syringe was used directly for ID injection. All NIR-II images were collected on a 640×512 pixel two-dimensional InGaAs array (Princeton Instruments, NIRvana TE 640). The excitation laser was an 808 nm laser diode at a power density of approximately 140 mW cm^−2. Emission was typically collected with 1000, 1050, 1100, 1150, 1200, 1250, 1300, 1350, 1400 nm LP filter (Thorlabs). 50 mm and 75 mm prime lens (Edmund optics) was used to obtain magnifications ranging of 1× (whole body) to 2.5× (high magnification) magnification by changing the relative position of camera, lens and animals. A binning of 1 and a variable exposure time were used for the InGaAs camera (640×512 pixel) to capture images in the NIR-II window. Images were processed with ImageJ.
(§6) All NIR-I images were collected A 1,344×1,024-pixel Hamamatsu silicon CCD detector (Hamamatsu C8484-03G02; pixel number: 1,344×1,024; readout noise: approximately 7 electron r.m.s.; dark current: 0.01 electrons per second per pixel) with an 814-851 nm bond pass filter (Edmund, #84-107). […]

U87MG tumor [12] = experiment: Subcutaneous U87MG tumor imaging, IV vs ID
Method: as §3, §4, §5, §6

Q: What does the source list for N=C(N)NCCC[C@@H]1NC(=O)[C@H](CCCCNC(=O)CCc2ccc(N(c3ccc(CCC(=O)O)cc3)c3ccc(-c4c5c(c(-c6ccc(N(c7ccc(CCC(=O)O)cc7)c7ccc(CCC(=O)O)cc7)cc6)c6nsnc46)N=S=N5)cc3)cc2)NC(=O)[C@@H](Cc2ccc(O)cc2)NC(=O)[C@H](CC(=O)O)NC(=O)CNC1=O [CH-RGD, CH-c(RGDyk)]?
A: half-life [1]: ~184 h; time tumor still identifiable [2]: 7 days; half-life [3]: ~12.9 h; time BAT could be visualized (bone; mouse, in vivo): 10 days; time bone signal still visualized, ex-vivo imaging (bone; mouse, in vivo): up to 45 days; time bone signal still visualized, in vivo imaging (bone; mouse, in vivo): 3 days; toxicity (NIH/3T3 cells): No obvious toxicity; time of peak fluorescence intensity, large tumor (U87MG tumor [4]): 4 days; time tumor fluorescence detectable, smaller tumor (U87MG tumor [4]; approximately 1 mm tumor): 4 h; time tumor fluorescence detectable, larger tumor (U87MG tumor [4]; approximately 6 mm tumor): approximately 0.5 h; time NPs stable in FBS before degrading into smaller NPs [5]: up to 2 weeks; time tumors identified post-injection [6]: 1 days; photostability [7]: remains stable

Q: With CC1(C)C(/C=C/C=C/C=C/C=C2\N(CCCCS(=O)(=O)O)c3ccc4ccccc4c3C2(C)C)=[N+](CCCCS(=O)(=O)[O-])c2ccc3ccccc3c21 [ICG, indocyanine green] as the compound, how does the blood half-life [8] read?
A: 3 to 5 min

Q: What about the “SBR, subiliac lymph node” value ([9]; 5 h after ID injection) of the same compound?
A: approximately 3

Q: And the “FWHM, subiliac lymph node” value ([9]; 5 h after ID injection, Gaussian fitting)?
A: 2.8 mm and 2.803 mm

Q: What about the “width of lymphatic vessels detected” value ([9]; ID injection) of the same compound?
A: greater than 400 μm

Q: What about the blood vessel detection (blood vessels) of the same compound?
A: only the largest brain blood vessels could be detected

Q: For ClC1=C(/C=C/c2cc(-c3ccccc3)[s+]c3ccccc23)CCC/C1=C\C=C1/C=C(c2ccccc2)Sc2ccccc21.[O-][Cl+3]([O-])([O-])[O-] [IR-26], which “quantum yield of reference fluorophore” value [10] is on record?
A: 0.05%

Q: With CH-c(RADyk) [CH-RAD] as the compound, how does the “time of maximum tumor fluorescence and TBR” value (U87MG tumor [11]) read?
A: 1 days

Q: What about the “mean tumor fluorescent intensity” value (U87MG tumor [12]; IV administration) of the same compound?
A: 22 k

Q: And the “ID versus IV injection comparison” value (U87MG tumor [12]; mouse, in vivo, iv)?
A: better TBR through ID injection

Q: What about the bone accumulation (bone; after 6 h post-injection) of the same compound?
A: no dramatic accumulation in bone

Q: And the “final concentration in bone by fluorescent intensity, relative to CH-RGD NPs” value (bone; mouse, in vivo)?
A: about half that of CH-RGD NPs
